Tests used:
VP1 [1] = system: T1, VP1; experiment: RB5 disappearance at […] nm, steady-state kinetics; assay type: biochemical, Pleurotus ostreatus; settings: 0.1 mM H2O2, 0.1 M tartrate pH 3.5, 25°C
T1 construct: mature protein, signal peptide removed, untagged in pET23a

VP1 [2] = system: T1, VP1; experiment: veratraldehyde formation at […] nm, steady-state kinetics; assay type: biochemical, Pleurotus ostreatus; settings: 0.1 mM H2O2, 0.1 M tartrate pH 3.0, 25°C
VP1 [3] = system: T1, VP1; experiment: ABTS cation radical formation at […] nm, steady-state kinetics; assay type: biochemical, Pleurotus ostreatus; settings: 0.1 mM H2O2, 0.1 M tartrate pH 3.5, 25°C; biphasic, high-efficiency site (catalytic Trp)
VP1 [4] = system: T1, VP1; experiment: dimeric coerulignone formation at […] nm, steady-state kinetics; assay type: biochemical, Pleurotus ostreatus; settings: 0.1 mM H2O2, 0.1 M tartrate pH 3.5, 25°C; biphasic, high-efficiency site (catalytic Trp)
purified protein [5] = substrate: COc1ccc(CO)cc1OC; experiment: purified protein; assay type: biochemical, Phanerodontia chrysosporium; settings: 0.1 mM H2O2, 0.1 M tartrate pH 3.0, 25°C
purified protein [6] = substrate: COc1cccc(OC)c1O; experiment: purified protein; assay type: biochemical, Phanerodontia chrysosporium; settings: 0.1 mM H2O2, 0.1 M tartrate pH 3.5, 25°C
purified protein [7] = substrate: CCn1c(=NN=c2sc3cc(S(=O)(=O)O)ccc3n2CC)sc2cc(S(=O)(=O)O)ccc21; experiment: purified protein; assay type: biochemical, Phanerodontia chrysosporium; settings: 0.1 mM H2O2, 0.1 M tartrate pH 3.5, 25°C
purified protein [8] = substrate: COc1ccc(CO)cc1OC; experiment: purified protein; assay type: biochemical, Gelatoporia subvermispora; settings: 0.1 mM H2O2, 0.1 M tartrate pH 3.0, 25°C
purified protein [9] = substrate: Nc1c(N=Nc2ccc(S(=O)(=O)CCOS(=O)(=O)O)cc2)c(S(=O)(=O)O)cc2cc(S(=O)(=O)O)c(N=Nc3ccc(S(=O)(=O)CCOS(=O)(=O)O)cc3)c(O)c12; experiment: purified protein; assay type: biochemical, Gelatoporia subvermispora; settings: 0.1 mM H2O2, 0.1 M tartrate pH 3.5, 25°C
purified protein [10] = substrate: COc1ccccc1OC(CO)C(O)c1cc(OC)c(OC)c(OC)c1; experiment: purified protein; assay type: biochemical, Gelatoporia subvermispora; settings: 0.1 mM H2O2, 100 mM BR buffer pH 3.0, 25°C, unit doubtful: printed kcat/Km (s^-1.mM^-1) implies mM
purified protein [11] = substrate: CCn1c(=NN=c2sc3cc(S(=O)(=O)O)ccc3n2CC)sc2cc(S(=O)(=O)O)ccc21; experiment: purified protein; assay type: biochemical, Gelatoporia subvermispora; settings: 0.1 mM H2O2, 0.1 M tartrate pH 3.5, 25°C

Work on `Nc1c(N=Nc2ccc(S(=O)(=O)CCOS(=O)(=O)O)cc2)c(S(=O)(=O)O)cc2cc(S(=O)(=O)O)c(N=Nc3ccc(S(=O)(=O)CCOS(=O)(=O)O)cc3)c(O)c12` [Reactive Black 5] yielded a Km (VP1 [1]) of 5.4 ± 0.2 µM.

`COc1ccc(CO)cc1OC` [veratryl alcohol] was tested, and the Km (VP1 [2]) was 5500 ± 46 µM.

Work on `CCn1c(=NN=c2sc3cc(S(=O)(=O)O)ccc3n2CC)sc2cc(S(=O)(=O)O)ccc21` [2,2'-azino-bis(3-ethylbenzothiazoline-6-sulfonate)] yielded a Km (VP1 [3]) of 4 ± 0.4 µM.

`COc1cccc(OC)c1O` [2,6-dimethoxyphenol] was tested, and the Km (VP1 [4]) was 54 ± 4 µM.

B1: LiP-H8 (Phanerodontia chrysosporium) (protein)
chain: ATCSNGKTVGDASCCAWFDVLDDIQQNLFHGGQCGAEAHESIRLVFHDSIAISPAMEAQGKFGGGGADGSIMIFDDIETAFHPNIGLDEIVKLQKPFVQKHGVTPGDFIAFAGRVALSNCPGAPQMNFFTGRAPATQPAPDGLVPEPFHTVDQIINRVNDAGEFDELELVWMLSAHSVAAVNDVDPTVQGLPFDSTPGIFDSQFFVETQLRGTAFPGSGGNQGEVESPLPGEIRIQSDHTIARDSRTACEWQSFVNNQSKLVDDFQFIFLALTQLGQDPNAMTDCSDVIPQSKPIPGNLPFSFFPAGKTIKDVEQACAETPFPTLTTLPGPETSVQRIPPPPGA
Work on B1 yielded a Km (purified protein [5]) of 190 ± 17 µM, a kcat (purified protein [5]) of 17.5 ± 0.5 s⁻¹ and a kcat/Km (purified protein [5]) of 92000 ± 6000 M⁻¹ s⁻¹. The Km (purified protein [6]) was 5.8 ± 0.5 µM, the kcat (purified protein [6]) was 10 ± 0.1 s⁻¹ and the kcat/Km (purified protein [6]) was 1.72e+06 ± 153000 M⁻¹ s⁻¹. It also gave a Km (purified protein [7]) of 23.0 ± 1.6 µM, a kcat (purified protein [7]) of 13 ± 0.2 s⁻¹ and a kcat/Km (purified protein [7]) of 563000 ± 36000 M⁻¹ s⁻¹.

B2: MnP6 (Gelatoporia subvermispora B; S171W/S189W) (protein)
chain: APTAVCSDGTRVSNAVCCDFVSLGQDLQSMVLQGDCGEDAHEIIRLTFHDAVAISRKLGPSAGGGADGSMLLFPLVEPEFAASNGIDDSVNNLIPFLSLHPTISAGDLVQFAGAVALSNCPGAPRVQFLAGRPNHTIAAIDGLIPEPQDNVTWILERFDDAGGFTPFEVVWLLASHTIARADKVDPTLDAAPFDTTPFTFDSQIFLEVLLKGVGFPGLDNNTGEVSSPLPLGDTSTGGKDTGLMRLQSDFALAHDPRTACFWQGFVDQQEFMSQSFASAFAKLAVLGHNTDDLIDCSEVVPVPKPAVDKPTTFPATTGPQDLELSCLAERFPTLSVDPGAQETLIPHCSDGLENCTSVQFSGPATDSP
notes: mature protein, signal peptide removed, untagged in pET23a; S168W and S168W-environment variants
Work on B2 yielded a Km (purified protein [8]) of 2740 ± 560 µM, a kcat (purified protein [8]) of 0.54 ± 0.04 s⁻¹ and a kcat/Km (purified protein [8]) of 197 M⁻¹ s⁻¹. The Km (purified protein [9]) was 12.6 ± 3 µM, the kcat (purified protein [9]) was 7.8 ± 1.1 s⁻¹ and the kcat/Km (purified protein [9]) was 619000 ± 27000 M⁻¹ s⁻¹. The Km (purified protein [10]) was 0.0049 ± 0.0013 mM, the Km (purified protein [11]) was 60.2 ± 13.4 µM and the kcat (purified protein [11]) was 1.4 ± 0.1 s⁻¹. For the same molecule, the kcat/Km (purified protein [11]) was 23000 ± 3000 M⁻¹ s⁻¹.

B3: MnP6 (Gelatoporia subvermispora B; F279E/F283M/F289K/Q292N/S171W/S189W/S293R/S296G/T183S) (protein)
chain: APTAVCSDGTRVSNAVCCDFVSLGQDLQSMVLQGDCGEDAHEIIRLTFHDAVAISRKLGPSAGGGADGSMLLFPLVEPEFAASNGIDDSVNNLIPFLSLHPTISAGDLVQFAGAVALSNCPGAPRVQFLAGRPNHTIAAIDGLIPEPQDNVTWILERFDDAGGFSPFEVVWLLASHTIARADKVDPTLDAAPFDTTPFTFDSQIFLEVLLKGVGFPGLDNNTGEVSSPLPLGDTSTGGKDTGLMRLQSDFALAHDPRTACEWQGMVDQQEKMSNRFAGAFAKLAVLGHNTDDLIDCSEVVPVPKPAVDKPTTFPATTGPQDLELSCLAERFPTLSVDPGAQETLIPHCSDGLENCTSVQFSGPATDSP
notes: as for B2
In the case of B3, the Km (purified protein [8]) is reported as 21600 ± 200 µM, the kcat (purified protein [8]) is reported as 1.69 ± 0.04 s⁻¹ and the kcat/Km (purified protein [8]) is reported as 78 M⁻¹ s⁻¹. It also gave a Km (purified protein [9]) of 5.4 ± 3 µM, a kcat (purified protein [9]) of 7 ± 1.1 s⁻¹ and a kcat/Km (purified protein [9]) of 1.31e+06 ± 100000 M⁻¹ s⁻¹.

Source: paper PMC4364632, “Engineering a fungal peroxidase that degrades lignin at very acidic pH” (Biotechnology for Biofuels, 2014)
